According to the DeepSol protein solubility set:

Experiment: soluble on expression in E. coli; label from the status in PepcDB or PDB records

Sequence	soluble on expression in E. coli
MGSDKIHHHHHHMVDFNNTLESAVKSVLKWEEKQIITETTIIRDVQGKVSLFLKSEQKATESDISNLEEILQNDLNGFFTGKIFWEKCDKKDKLRIEIIKSIIEESREEWKTEDGVDFYICERPIAKKAWVNATQDVEPVWQYQEAECSNKAKVVTFYSFKGGMGRTTALAGIALNLIEQNKNVMMIDMDIEAPGLSTLFFDDIVVEKGLLDYLIERPLNEQCDIHDYVLEVTDPALLKENDGNLYLMPAGKVDETYLQKLARIDYQDNRENNLKSSIKNLLEKLDNTYHPDYILIDARAGFHDMGGIAVAQIPHGAVLIGNGSKQSWDGMTQVIRTIAKGNTEEFSIMIVDSMCERATAERAIEQRKKFLNMAYTVCMENYYNEDQVMPGIDAEGVEHQPEYIPYDSELMQGFELFSDGYNDSEIRVQAYRDLLTGSAYKDITKRIQSWFGE	not soluble
MGHHHHHHSHMSDIYQHFRKDERAFIDQALEWKRIVQEQYRMKLTDFLDPREQVILSAVTGQADVGLAFSGGYDRAERKRAILFPEYITPEESDFELQAFNVRYADKFVSVDHRSLLGALMGIGLKRQKFGDIVFSETAVQLIVSADTADFVAAQLTQAGKAAVSLEKIDLSDLNIPAVDVEIRDDTVSSLRLDAVCASMSRQSRQKSQTLVKNGLVKVNWKVVEDPSYIVAEGDMLSIRGFGRCSLTKIEGKTKKDKWRVTFERQK	not soluble
MKKYIALAWVCLALTDVMAQKQKVVEKVVDEDYYPVEGAVVTLKRTNQNATTDKDGVFILEEVPVYFDSLQVKKGKRSGYIDLPMRIQMRTQVMQRFSWSVKAGIGAGKFMQGPESKLKDGFSIYGGVGADIRMSKHWAFQPSLLLVSRKMKGYDFYGYYAENNGDGSSSASYEQVSGTYNPFYLEIPLLFALKYRVGNDMNLVFSFGPYIDLGLSGDEKREYIKHYYDTMEGNKTESVTNSRSLFGKRFTGGFAYGIGVEYGRFLIGGTGRVGCTSWNHSEGFIDVAFEIGYRF	not soluble
MEELQYFPYERLRPNQREFIEIVKEAVKRGENLIVEAPTGFGKTISVLAGVLPYAISLGYKVVYLARTHKQMDRVIEELKKIRERNEVSGIEFRSRRDLCLHSYIQTFVQDAYTSMIVCKTLRKLGKCPFFENIKEKRDRVEEIVRFFLNSPPFPHEVLEYSELLELCPYEITKKIGEKANVIVASYLYMISPPIRQAFLENLGVDYSDLIVIFDEAHNLPDQAISALSDRLSIRSIERAIKEAEEYGEKDIENFLSILLRGLEILYKEKLENYESEEVPIRPEEVFLHVASVLGWSGREIGMMLEDMIEVGDAIREDRIERNLPPRSYVGRVGEFLWNWLALREREDYLHLFTKERGLALELVALDPSVALEFLEEVHSAIFMSGTLSPLEAFRDIIGVKAELKKFPRMIKRENAIVLVARDVSTRGIERSPSLYRRISEYIFEAVRNTPKNVGVFTASYEVLEGILSTNVHIKIEEEIGKKVFIEKRDAPSRENDEMIRAFKEESKGKGAVLFGVMGGRNSEGQDYSGDEMNGVVLVGIPYARPTPRVQAQIRYFEKKFPGKGRYYGYVLPAHRKLTQAAGRVHRSEEEKGSIVILDYRVLWKSVKKDLPDWMVETMIPVTLPHYENKTLEHHHHHH	not soluble
MGSDKIHHHHHHMSAELNQPVPRPGILDIAAYVPGKEHVDGVAKVYKLSSNETPLGPSPKAIEAFSAAASHLEIYPDGQAIALRQAIADVHGLNIANILCGNGSDELLGLLCHVYLGAGDEAIITEHGFLVYKIQIMGAGATPVTVKEKDCVVDVDAILAAVTPKTKMVFLANPGNPTGTYVPVAEIRRLQAGLPKHVVLVLDAAYAEYVRKNDYEAGLELVSGNRNVVMTRTFSKVYGLAALRVGWMYAPVDIIDALNRVRGPFNMSAPAIAAGAAAIRDQAFVQKAVAHNALWMEKLVTTFTGLGLTVTPSVANFILIHFPDQDGKRATDADEFLSRRGYILRAVRGYGFPNALRMTVGSEEANLGVIAALTEFMGQA	not soluble
MADRPQLSIIIPVFNEAKILQKSPTENTRQYLGQFTEDQRIEILIIDGGSQDSTVELCQTYADSLPLHVFISPQTGRANQMNYGASLSRSEWLLFLHLDSILPHDFFTQIAEILTNSSYIAGAFGLTIDLPGRPYRWLEKLILWRSIYAQKPYGDQGLFIQRQDFQQLGGFADLPIMEDYQFMQKLGKQRGKVAIAGGKVITSGRRWQKLGLLRTTAINQLVVAGYHLGVSPQTLVHWYRGAKPNRGNRPNSDGTSCLEHHHHHH	soluble
MGSDKIHHHHHHMTKKLTNQLIDVTSGRNFRELGGYETNSGKKIKMHKLLRTGNLADLSPFDKQFLTDYGVKYDVDFRSKEEVERQPDRVPDGVEYIYDPVFSEDLTNSSKSINDLNTQASDDADFGFNHMHYAYEDMIESESAQKAYRKFFDVLLKNDVEGESVIFHCTAGKDRTGFGALLILSALGVPFNTIKKDYLLTNITTKEFVESMVEHARQNGRNENVLQSIRDIQSVRAEYIDHAVKIINDDYGSIHNYLRDMMKLSSADIMKLRNIYLED	not soluble
GSHMKISEFLHLALPEEQWLPTISGVLRQFAEEECYVYERPPCWYLGKGCQARLHINADGTQATFIDDAGEQKWAVDSIADCARRFMAHPQVKGRRVYGQVGFNFAAHARGIAFNAGEWPLLTLTVPREELIFEKGNVTVYADSADGCRRLCEWVKEASTTTQNAPLAVDTALNGEAYKQQVARAVAEIRRGEYVKVIVSRAIPLPSRIDMPATLLYGRQANTPVRSFMFRQEGREALGFSPELVMSVTGNKVVTEPLAGTRDRMGNPEHNKAKEAELLHDSKEVLEHILSVKEAIAELEAVCLPGSVVVEDLMSVRQRGSVQHLGSGVSGQLAENKDAWDAFTVLFPSITASGIPKNAALNAIMQIEKTPRELYSGAILLLDDTRFDAALVLRSVFQDSQRCWIQAGAGIIAQSTPERELTETREKLASIAPYLMV	soluble
MGSDKIHHHHHHMTCRRITFVPNFMIRDARVLRAGFVPREVEHRDAEVNHLSSVLEPITNGEPADTAIVTGPSGTGKTCISQFVTERLREEVLNVEATYVNCWRNYTRFRTLYQILDDFGETIDIHRQSTPHDELIDRLQQYDGPRTVIILDEVDQLEDPGIIYDLHSLPHFAVICIANKEEDLFSRVDDRLVSRLRSSEHVRMDKYHDEQLHDILAARVKGGLDQDVITTNQLDRIADAAAGDARLAIGILRTAASKADRESRERITDDILLNAAEDARAQIKQKNLDSLIPHQRLVYDVVREHGPLGPSEIYDHYKRKVDDPRTKRTIRTYLSKMTQYNVLEAEGTSRDREYSLVDSTAPSVTQ	not soluble
MGSDKIHHHHHHMALAKLPQLESVFLTDAGLETDFIFNRGIDLPYFASITLLQSSDGKIALEEYFRGFLELARRMRCGLILESATWRASPDWAEPLGLSQQELDTLNTSAIAILRDLRDEFGSTMPAVVISGCLGPRGDGYDPGKIMSEEGAEAYHRHQAEVLASAGVDQLTAITMTNVPEAIGIAKAAKSLAVPVAISFTVETDGRLPTGDRLSDALRAVDQATASTPAYYMINCAHPSHFAAVLEDGADWVNRIGGLRANASRCSHAEVDAMSELDRGNPEELAALHSELRLRFPHINVLGGCCGTDLDHITAIAEACL	not soluble
MSLIEFNKKTNTLEQVQYKYTLQDVSEPNLYRDIFSYDEIPKCTFNHRKVPMAPPDEIWITDTTFRDGQQSRAPYTVEQIVHLYDLLHKLGGPKGIIRQCEFFLYSDRDKQAVYKCLERGYKYPEVTSWIRATKSDFQLAKDMGMKESGILVSCSDYHIFKKLNMTRKQALEHYMSIVKSAIEVGIRPRCHFEDITRADFYGFVVPFAIELRKLMEESGVPIKIRACDTLGYGVSYPGAALPRSVPGIIYGLRHYAGFPSELIEWHGHNDFYKAVCNAATAWLYGASAVNCSLLGIGERTGNTPLEAMVIEYAQLRGTTDSMDTTVITEIAEYYEKELGYQIPPRTPFVGKHFNVTQAGIHADGLLKDEEIYNIFDTAKLLNRPVGVAINQTSGLAGIAHWINSHFGLEGAKRIDKRDERIVKIKEWVDEQYKAGRVTSIGDDELEEVIRKLAPEIFDLALEGHHHHHH	soluble
MGSDKIHHHHHHMKRCPNCGCRGQAAFPEHVPGQVQYGPRLHAFTTLLNVGHFIPLERVTQLTDALFGASISDGTVALNINLASERLEPFEDDLKTGLRQQAVLHADETGAKVNGKLNWFHVACFARGTLYTLHEKRGYAALEAAGVLTDFTGVVVHDAWSTYFRLPGEHALCNAHLLRELRKLDEHDRQPWAGELRRALQQVYHAQKTGTLTDEQRAVFYTRFDELVLAGLEANPVQEPVPKRRGKPKQLPGRNLALRCQQHRAAMLLFLERADVPFDNNQAERDIRMACVKRKVSGGFRSEVGGQAFCRVRSFISTLQKQGLSVWTGLVDVFRGVLPKLDFSC	not soluble
